Source: US20260167699A1 (Chugai, published 2026)

T1: FcγRIIa(R) (human, UniProt P12318 34-217)
T1 construct: extracellular domain; also called 2aR
T1 sequence: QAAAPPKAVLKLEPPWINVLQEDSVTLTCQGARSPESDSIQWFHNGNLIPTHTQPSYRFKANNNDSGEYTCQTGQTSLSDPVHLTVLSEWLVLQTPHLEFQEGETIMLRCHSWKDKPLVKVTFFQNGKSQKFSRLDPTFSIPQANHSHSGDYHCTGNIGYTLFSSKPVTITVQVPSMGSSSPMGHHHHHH

T2: FcγRIIa(H) (human, UniProt P12318 34-217)
T2 construct: extracellular domain; also called 2aH
T2 sequence: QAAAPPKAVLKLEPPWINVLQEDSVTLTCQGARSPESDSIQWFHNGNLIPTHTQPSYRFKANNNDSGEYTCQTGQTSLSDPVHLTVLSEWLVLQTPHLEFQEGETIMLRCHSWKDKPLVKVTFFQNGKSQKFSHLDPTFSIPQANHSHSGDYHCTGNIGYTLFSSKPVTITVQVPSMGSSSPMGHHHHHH

T3: FcγRIIb (human, UniProt P31994 43-217)
T3 construct: extracellular domain; also called 2b
T3 sequence: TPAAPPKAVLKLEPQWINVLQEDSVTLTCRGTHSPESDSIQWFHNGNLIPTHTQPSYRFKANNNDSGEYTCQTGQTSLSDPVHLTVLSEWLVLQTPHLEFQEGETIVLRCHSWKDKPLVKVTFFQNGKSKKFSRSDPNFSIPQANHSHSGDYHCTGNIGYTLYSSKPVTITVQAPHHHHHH

T4: FcγRIIa(R) extracellular domain, His-tagged (human, UniProt P12318 34-217)
T4 construct: extracellular domain; also called 2aR
T4 sequence: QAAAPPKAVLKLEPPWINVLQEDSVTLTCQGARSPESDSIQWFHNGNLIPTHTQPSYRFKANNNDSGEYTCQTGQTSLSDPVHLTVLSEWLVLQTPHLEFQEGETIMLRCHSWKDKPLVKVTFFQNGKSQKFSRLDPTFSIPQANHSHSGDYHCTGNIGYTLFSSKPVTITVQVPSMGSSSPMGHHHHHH

T5: FcγRIIa(H) extracellular domain, His-tagged (human, UniProt P12318 34-217)
T5 construct: extracellular domain; also called 2aH
T5 sequence: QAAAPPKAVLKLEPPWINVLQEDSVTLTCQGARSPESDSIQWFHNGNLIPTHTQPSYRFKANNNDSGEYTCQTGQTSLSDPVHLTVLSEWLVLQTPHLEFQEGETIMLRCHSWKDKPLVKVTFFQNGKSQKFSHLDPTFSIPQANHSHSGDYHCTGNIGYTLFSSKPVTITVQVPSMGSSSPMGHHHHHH

T6: FcγRIIb extracellular domain, His-tagged (human, UniProt P31994 43-217)
T6 construct: extracellular domain; also called 2b
T6 sequence: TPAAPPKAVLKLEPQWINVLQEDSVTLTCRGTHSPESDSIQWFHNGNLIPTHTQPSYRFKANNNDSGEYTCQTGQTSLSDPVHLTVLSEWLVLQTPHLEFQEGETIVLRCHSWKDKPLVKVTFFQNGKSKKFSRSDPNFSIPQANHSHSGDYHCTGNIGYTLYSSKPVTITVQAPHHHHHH


Legend:
[1] = target: T7, FcγRIa (human, UniProt P12314 16-292); test: SPR, relative to GpH7-A5/GpH7-B3/GpL16-k0 =100
T7 construct: extracellular domain; also called 1a

[2] = target: T1, FcγRIIa(R); test: SPR, relative to GpH7-A5/GpH7-B3/GpL16-k0 =100
[3] = target: T2, FcγRIIa(H); test: SPR, relative to GpH7-A5/GpH7-B3/GpL16-k0 =100
[4] = target: T3, FcγRIIb; test: SPR, relative to GpH7-A5/GpH7-B3/GpL16-k0 =100
[5] = target: T8, FcγRIa extracellular domain, His-tagged (human, UniProt P12314 16-292); test: SPR, vs GpH7-A5/GpH7-B3/GpL16-k0 =100
T8 construct: extracellular domain; also called 1a

[6] = target: T4, FcγRIIa(R) extracellular domain, …; test: SPR, vs GpH7-A5/GpH7-B3/GpL16-k0 =100
[7] = target: T5, FcγRIIa(H) extracellular domain, …; test: SPR, vs GpH7-A5/GpH7-B3/GpL16-k0 =100
[8] = target: T6, FcγRIIb extracellular domain, His-tagged; test: SPR, vs GpH7-A5/GpH7-B3/GpL16-k0 =100
[9] = target: T9, FcγRIIIa extracellular domain, His-tagged (human, UniProt P08637 17-208); test: SPR, vs GpH7-A5/GpH7-B3/GpL16-k0 =100
T9 construct: extracellular domain; also called 3a
T9 sequence (P08637 other isoform, or with tags, fused parts or gaps): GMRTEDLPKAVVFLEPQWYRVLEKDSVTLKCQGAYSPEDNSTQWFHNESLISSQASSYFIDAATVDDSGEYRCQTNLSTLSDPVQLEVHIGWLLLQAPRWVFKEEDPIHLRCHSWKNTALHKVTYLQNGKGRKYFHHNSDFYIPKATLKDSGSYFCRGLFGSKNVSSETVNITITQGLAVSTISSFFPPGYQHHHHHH

T8 sequence (P12314 other isoform, or with tags, fused parts or gaps): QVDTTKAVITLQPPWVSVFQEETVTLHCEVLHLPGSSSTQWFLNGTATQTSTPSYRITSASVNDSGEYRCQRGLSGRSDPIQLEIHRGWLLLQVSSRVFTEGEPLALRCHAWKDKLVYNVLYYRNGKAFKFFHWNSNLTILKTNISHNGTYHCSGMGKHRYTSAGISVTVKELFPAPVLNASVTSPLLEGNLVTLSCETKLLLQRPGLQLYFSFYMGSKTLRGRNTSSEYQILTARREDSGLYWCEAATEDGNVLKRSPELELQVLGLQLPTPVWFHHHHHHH
T7 sequence (P12314 other isoform, or with tags, fused parts or gaps): as above

Row | Binder | He/Con 1a [1] | He/Con 2aR [2] | He/Con 2aH [3] | He/Con 2b [4] | He/Con 1a [5] | He/Con 2aR [6] | He/Con 2aH [7] | He/Con 2b [8] | He/Con 3a [9]
1 | GpH7-A5/GpH7-B3 variant A330_01G/GpL16-k0 (antibody, human IgG1, kappa, He Ab: heterodimerized IgG1, one H chain mutated) heavy 1: not shown heavy 2: not shown light: DIVMTQSPLSLPVTPGEPASISCQASESLVHSNRNTYLHWYLQKPGQSPQLLIYKVSNRFSGVPDRFSGSGSGTDFTLKISRVEAEDVGVYYCSQNTHVPPTFGQGTKVEIERTVAAPSVFIFPPSDEQLKSGTASVVCLLNNFYPREAKVQWKVDNALQSGNSQESVTEQDSKDSTYSLSSTLTLSKADYEKHKVYACEVTHQGLSSPVTKSFNRGEC | 109% | 122% | 107% | 117% | – | – | – | – | –
2 | GpH7-A5/GpH7-B3 variant A327_10E/GpL16-k0 (antibody, human IgG1, kappa, He Ab: heterodimerized IgG1, one H chain mutated) heavy 1: not shown heavy 2: not shown light: DIVMTQSPLSLPVTPGEPASISCQASESLVHSNRNTYLHWYLQKPGQSPQLLIYKVSNRFSGVPDRFSGSGSGTDFTLKISRVEAEDVGVYYCSQNTHVPPTFGQGTKVEIERTVAAPSVFIFPPSDEQLKSGTASVVCLLNNFYPREAKVQWKVDNALQSGNSQESVTEQDSKDSTYSLSSTLTLSKADYEKHKVYACEVTHQGLSSPVTKSFNRGEC | 106% | 142% | 108% | 175% | – | – | – | – | –
3 | GpH7-A5/GpH7-B3 variant A327_18N/GpL16-k0 (antibody, human IgG1, kappa, He Ab: heterodimerized IgG1, one H chain mutated) heavy 1: not shown heavy 2: not shown light: DIVMTQSPLSLPVTPGEPASISCQASESLVHSNRNTYLHWYLQKPGQSPQLLIYKVSNRFSGVPDRFSGSGSGTDFTLKISRVEAEDVGVYYCSQNTHVPPTFGQGTKVEIERTVAAPSVFIFPPSDEQLKSGTASVVCLLNNFYPREAKVQWKVDNALQSGNSQESVTEQDSKDSTYSLSSTLTLSKADYEKHKVYACEVTHQGLSSPVTKSFNRGEC | 100% | 114% | 79% | 141% | – | – | – | – | –
4 | GpH7-A5/GpH7-B3 variant A327_06M/GpL16-k0 (antibody, human IgG1, kappa, He Ab: heterodimerized IgG1, one H chain mutated) heavy 1: not shown heavy 2: not shown light: DIVMTQSPLSLPVTPGEPASISCQASESLVHSNRNTYLHWYLQKPGQSPQLLIYKVSNRFSGVPDRFSGSGSGTDFTLKISRVEAEDVGVYYCSQNTHVPPTFGQGTKVEIERTVAAPSVFIFPPSDEQLKSGTASVVCLLNNFYPREAKVQWKVDNALQSGNSQESVTEQDSKDSTYSLSSTLTLSKADYEKHKVYACEVTHQGLSSPVTKSFNRGEC | 106% | 80% | 89.3% | 74.1% | – | – | – | – | –
5 | GpH7-A5/GpH7-B3 variant A327_19Q/GpL16-k0 (antibody, human IgG1, kappa, He Ab: heterodimerized IgG1, one H chain mutated) heavy 1: not shown heavy 2: not shown light: DIVMTQSPLSLPVTPGEPASISCQASESLVHSNRNTYLHWYLQKPGQSPQLLIYKVSNRFSGVPDRFSGSGSGTDFTLKISRVEAEDVGVYYCSQNTHVPPTFGQGTKVEIERTVAAPSVFIFPPSDEQLKSGTASVVCLLNNFYPREAKVQWKVDNALQSGNSQESVTEQDSKDSTYSLSSTLTLSKADYEKHKVYACEVTHQGLSSPVTKSFNRGEC | 98.5% | 77.7% | 79.6% | 67.5% | – | – | – | – | –

Other lines, results leading:

Row | He/Con 1a [1] | He/Con 2aR [2] | He/Con 2aH [3] | He/Con 2b [4] | He/Con 1a [5] | He/Con 2aR [6] | He/Con 2aH [7] | He/Con 2b [8] | He/Con 3a [9] | Binder
6 | – | – | – | – | 93.8 % of control | 88.8 % of control | 69.7 % of control | 85.1 % of control | 56.8 % of control | GpH7-A5/GpH7-B3 variant V266_02A/GpL16-k0 (antibody, human IgG1, kappa) heavy 1: not shown heavy 2: not shown light: DIVMTQSPLSLPVTPGEPASISCQASESLVHSNRNTYLHWYLQKPGQSPQLLIYKVSNRFSGVPDRFSGSGSGTDFTLKISRVEAEDVGVYYCSQNTHVPPTFGQGTKVEIERTVAAPSVFIFPPSDEQLKSGTASVVCLLNNFYPREAKVQWKVDNALQSGNSQESVTEQDSKDSTYSLSSTLTLSKADYEKHKVYACEVTHQGLSSPVTKSFNRGEC
7 | – | – | – | – | 94.9 % of control | 152 % of control | 106 % of control | 248 % of control | 117 % of control | GpH7-A5/GpH7-B3 variant V266_08L/GpL16-k0 (antibody, human IgG1, kappa) heavy 1: not shown heavy 2: not shown light: DIVMTQSPLSLPVTPGEPASISCQASESLVHSNRNTYLHWYLQKPGQSPQLLIYKVSNRFSGVPDRFSGSGSGTDFTLKISRVEAEDVGVYYCSQNTHVPPTFGQGTKVEIERTVAAPSVFIFPPSDEQLKSGTASVVCLLNNFYPREAKVQWKVDNALQSGNSQESVTEQDSKDSTYSLSSTLTLSKADYEKHKVYACEVTHQGLSSPVTKSFNRGEC
8 | – | – | – | – | 96.1 % of control | 129 % of control | 107 % of control | 160 % of control | 113 % of control | GpH7-A5/GpH7-B3 variant V266_07I/GpL16-k0 (antibody, human IgG1, kappa) heavy 1: not shown heavy 2: not shown light: DIVMTQSPLSLPVTPGEPASISCQASESLVHSNRNTYLHWYLQKPGQSPQLLIYKVSNRFSGVPDRFSGSGSGTDFTLKISRVEAEDVGVYYCSQNTHVPPTFGQGTKVEIERTVAAPSVFIFPPSDEQLKSGTASVVCLLNNFYPREAKVQWKVDNALQSGNSQESVTEQDSKDSTYSLSSTLTLSKADYEKHKVYACEVTHQGLSSPVTKSFNRGEC
